Consider eight molecules from patent US20090291890A1 (published 2009).

Assay [1] deals with T1, soluble tissue factor (recombinant human Coagulation Factor III/soluble tissue factor; R&D Systems) (human).
T1 chain: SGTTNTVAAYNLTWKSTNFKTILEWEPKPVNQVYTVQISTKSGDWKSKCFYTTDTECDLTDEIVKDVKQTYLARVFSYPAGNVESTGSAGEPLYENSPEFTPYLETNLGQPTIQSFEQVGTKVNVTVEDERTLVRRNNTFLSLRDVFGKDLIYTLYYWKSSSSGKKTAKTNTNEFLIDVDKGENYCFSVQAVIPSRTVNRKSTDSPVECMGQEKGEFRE
The experiment in a line: SPR (Biacore T100), sTF on chip, two-state fit.

In assay [2] the target is T2, Mesyl-dFPR-ACC.
T2 sequence (peptide, N-terminal mesyl; D-Phe at position 1 (dF); C-terminal ACC fluorophore): FPR

The target of assay [3] is Factor X (Homo sapiens (Human)) (UniProt P00742).

A word on the Kd: it is the concentration at which binding is half-saturated.

Changes are numbered by the printed parent chain. Names and notes keep the numbering of the source.

Sequence of Factor X (Homo sapiens (Human)) (P00742 41-488 limits assumed): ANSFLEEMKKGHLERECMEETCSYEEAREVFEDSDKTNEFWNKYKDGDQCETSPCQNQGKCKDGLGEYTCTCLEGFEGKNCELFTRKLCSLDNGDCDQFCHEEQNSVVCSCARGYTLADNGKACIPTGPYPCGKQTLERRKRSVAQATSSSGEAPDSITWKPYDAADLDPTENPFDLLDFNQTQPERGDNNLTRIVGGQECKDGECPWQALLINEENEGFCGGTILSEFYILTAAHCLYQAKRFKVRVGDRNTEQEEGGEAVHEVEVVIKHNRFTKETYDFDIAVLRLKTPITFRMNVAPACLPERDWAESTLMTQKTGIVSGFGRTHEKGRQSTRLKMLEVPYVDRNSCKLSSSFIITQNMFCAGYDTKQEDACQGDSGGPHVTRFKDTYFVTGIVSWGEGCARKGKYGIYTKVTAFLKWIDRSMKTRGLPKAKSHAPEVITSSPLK

B1: FVIIa V158D/Q286R/E296V/M298Q (enzyme)
chain: ANAFLEELRPGSLERECKEEQCSFEEAREIFKDAERTKLFWISYSDGDQCASSPCQNGGSCKDQLQSYICFCLPAFEGRNCETHKDDQLICVNENGGCEQYCSDHTGTKRSCRCHEGYSLLADGVSCTPTVEYPCGKIPILEKRNASKPQGRIVGGKDCPKGECPWQVLLLVNGAQLCGGTLINTIWVVSAAHCFDKIKNWRNLIAVLGEHDLSEHDGDEQSRRVAQVIIPSTYVPGTTNHDIALLRLHQPVVLTDHVVPLCLPERTFSERTLAFVRFSLVSGWGRLLDRGATALVLQVLNVPRLMTQDCLQQSRKVGDSPNITEYMFCAGYSDGSKDSCKGDSGGPHATHYRGTWYLTGIVSWGQGCATVGHFGVYTRVSQYIEWLQKLMRSEPRPGVLLRAPFP
B1: in assay [1], the “Affinity Kd-WT/Kd-mut” value turned out to be 3.5 and the Kd is 2.2 nM. In assay [2], the Activity (µmol/sec/µmol), specific activity for mesyl-dFPR-ACC (µmol/sec/µmol) came out at 1.83. Also, in assay [3], the kcat/KM (M^-1s^-1), TF-dependent assay amounted to 1.49e+08 M⁻¹ s⁻¹ and the kcat/KM, TF-independent assay was found to be 1020 M⁻¹ s⁻¹.

B2: FVIIa V158D/Q286R/E296V/M298Q/H373F (enzyme)
chain: B1 chain with H373F
On to B2, for which, in assay [1], the “Affinity Kd-WT/Kd-mut” value worked out at 4.5 and the Kd worked out at 1.7 nM. Moreover, the Activity (µmol/sec/µmol), specific activity for mesyl-dFPR-ACC (µmol/sec/µmol) in assay [2] is 1.89. For the same molecule, the kcat/KM, TF-dependent assay in assay [3] was determined as 2.39e+08 M⁻¹ s⁻¹.

B3: FVIIa T239I/Q286R (enzyme)
chain: B1 chain with D158V, T239I, V296E, Q298M
On to B3, for which, in assay [1], the “Affinity Kd-WT/Kd-mut” value worked out at 1 and the Kd came out at 8 nM.

B4: FVIIa S222A/Q286R/M298Q/H373F (enzyme)
chain: B1 chain with D158V, S222A, V296E, H373F
For B4, in assay [1], the “Affinity Kd-WT/Kd-mut” value turned out to be 3.7 and the dissociation constant (Kd) turned out to be 2.1 nM. In assay [2], this molecule returned an Activity (µmol/sec/µmol), specific activity for mesyl-dFPR-ACC (µmol/sec/µmol) of 2.79. In addition, the kcat/KM (M^-1s^-1), TF-dependent assay in assay [3] stood at 1.48e+08 M⁻¹ s⁻¹.

B5: FVIIa S222A/T239V/H257A/Q286R/M298Q (enzyme)
chain: B1 chain with D158V, S222A, T239V, H257A, V296E
Take B5: in assay [1], the “Affinity Kd-WT/Kd-mut” value was 3.4 and the Kd was 2.2 nM. Moreover, the Activity (µmol/sec/µmol), specific activity for mesyl-dFPR-ACC (µmol/sec/µmol) in assay [2] is 1.66. In addition, in assay [3], the kcat/KM (M^-1s^-1), TF-dependent assay was 2.14e+08 M⁻¹ s⁻¹ and the kcat/KM, TF-independent assay is 143 M⁻¹ s⁻¹.

B6: FVIIa T239I/Q286R/H373F (enzyme)
chain: B1 chain with D158V, T239I, V296E, Q298M, H373F
Regarding B6, in assay [1], the “Affinity Kd-WT/Kd-mut” value amounted to 1 and the Kd turned out to be 7.8 nM.

B7: FVIIa T239V/Q286R/M298Q (enzyme)
chain: B1 chain with D158V, T239V, V296E
For the molecule B7, in assay [1], the “Affinity Kd-WT/Kd-mut” value worked out at 3.1 and the Kd is 2.5 nM. Moreover, the Activity (µmol/sec/µmol), specific activity for mesyl-dFPR-ACC (µmol/sec/µmol) in assay [2] was 1.74. In assay [3], the kcat/KM (M^-1s^-1), TF-dependent assay was 1.72e+08 M⁻¹ s⁻¹ and the kcat/KM, TF-independent assay came out at 29.3 M⁻¹ s⁻¹.

B8: FVIIa T239V/Q286R (enzyme)
chain: B1 chain with D158V, Y234V, V296E, Q298M
Take B8: in assay [1], the “Affinity Kd-WT/Kd-mut” value worked out at 1.7 and the dissociation constant Kd stood at 2.3 nM. The same molecule showed an Activity (µmol/sec/µmol), specific activity for mesyl-dFPR-ACC (µmol/sec/µmol) in assay [2] of 1.26.
